Legend:
Conditions in all cases: Homo sapiens; time 1.0 hrs
[1] = substrate: CCCc1cc(/C=C/C(=O)c2ccc(O)cc2O)ccc1O
[2] = substrate: O=C(/C=C/c1ccc(O)c(O)c1)c1ccc(O)cc1O
[3] = substrate: O=C(/C=C/c1ccc(O)cc1)c1ccc(O)cc1O
[4] = substrate: C=CCc1cc(/C=C/C(=O)c2ccc(O)cc2O)ccc1O
[5] = substrate: COc1cc(/C=C/C(=O)c2ccc(O)cc2O)ccc1O
[6] = substrate: Cc1cc(O)ccc1/C=C/C(=O)c1ccc(O)cc1O
[7] = substrate: CCCc1cc(/C=C/C(=O)c2ccc(O)cc2O)ccc1O; remark: listed apart in the source
[8] = substrate: O=C(/C=C/c1ccc(O)c(O)c1)c1ccc(O)cc1O; remark: listed apart in the source
[9] = substrate: O=C(/C=C/c1ccc(O)cc1)c1ccc(O)cc1O; remark: listed apart in the source
[10] = substrate: C=CCc1cc(/C=C/C(=O)c2ccc(O)cc2O)ccc1O; remark: listed apart in the source
[11] = substrate: COc1cc(/C=C/C(=O)c2ccc(O)cc2O)ccc1O; remark: listed apart in the source
[12] = substrate: Cc1cc(O)ccc1/C=C/C(=O)c1ccc(O)cc1O; remark: listed apart in the source
[13] = substrate: CCCc1cc(/C=C/C(=O)c2ccc(O)cc2O)ccc1O; remark: listed apart in the source
Description: (§1) Binding affinity to DAPK1 (unknown origin) assessed as catalytic rate incubated for 1 hr in presence of ATP by malachite green assay (Rvb = 3.0 +/- 0.15 /min)

[14] = substrate: O=C(/C=C/c1ccc(O)c(O)c1)c1ccc(O)cc1O; remark: listed apart in the source
Description: as §1

[15] = substrate: O=C(/C=C/c1ccc(O)cc1)c1ccc(O)cc1O; remark: listed apart in the source
Description: as §1

[16] = substrate: C=CCc1cc(/C=C/C(=O)c2ccc(O)cc2O)ccc1O; remark: listed apart in the source
Description: as §1

[17] = substrate: COc1cc(/C=C/C(=O)c2ccc(O)cc2O)ccc1O; remark: listed apart in the source
Description: as §1

[18] = substrate: Cc1cc(O)ccc1/C=C/C(=O)c1ccc(O)cc1O; remark: listed apart in the source
Description: as §1

B1: Death-associated protein kinase 1 (Homo sapiens), P53355 (protein)
chain: MTVFRQENVDDYYDTGEELGSGQFAVVKKCREKSTGLQYAAKFIKKRRTKSSRRGVSREDIEREVSILKEIQHPNVITLHEVYENKTDVILILELVAGGELFDFLAEKESLTEEEATEFLKQILNGVYYLHSLQIAHFDLKPENIMLLDRNVPKPRIKIIDFGLAHKIDFGNEFKNIFGTPEFVAPEIVNYEPLGLEADMWSIGVITYILLSGASPFLGDTKQETLANVSAVNYEFEDEYFSNTSALAKDFIRRLLVKDPKKRMTIQDSLQHPWIKPKDTQQALSRKASAVNMEKFKKFAARKKWKQSVRLISLCQRLSRSFLSRSNMSVARSDDTLDEEDSFVMKAIIHAINDDNVPGLQHLLGSLSNYDVNQPNKHGTPPLLIAAGCGNIQILQLLIKRGSRIDVQDKGGSNAVYWAARHGHVDTLKFLSENKCPLDVKDKSGEMALHVAARYGHADVAQLLCSFGSNPNIQDKEEETPLHCAAWHGYYSVAKALCEAGCNVNIKNREGETPLLTASARGYHDIVECLAEHGADLNACDKDGHIALHLAVRRCQMEVIKTLLSQGCFVDYQDRHGNTPLHVACKDGNMPIVVALCEANCNLDISNKYGRTPLHLAANNGILDVVRYLCLMGASVEALTTDGKTAEDLARSEQHEHVAGLLARLRKDTHRGLFIQQLRPTQNLQPRIKLKLFGHSGSGKTTLVESLKCGLLRSFFRRRRPRLSSTNSSRFPPSPLASKPTVSVSINNLYPGCENVSVRSRSMMFEPGLTKGMLEVFVAPTHHPHCSADDQSTKAIDIQNAYLNGVGDFSVWEFSGNPVYFCCYDYFAANDPTSIHVVVFSLEEPYEIQLNQVIFWLSFLKSLVPVEEPIAFGGKLKNPLQVVLVATHADIMNVPRPAGGEFGYDKDTSLLKEIRNRFGNDLHISNKLFVLDAGASGSKDMKVLRNHLQEIRSQIVSVCPPMTHLCEKIISTLPSWRKLNGPNQLMSLQQFVYDVQDQLNPLASEEDLRRIAQQLHSTGEINIMQSETVQDVLLLDPRWLCTNVLGKLLSVETPRALHHYRGRYTVEDIQRLVPDSDVEELLQILDAMDICARDLSSGTMVDVPALIKTDNLHRSWADEEDEVMVYGGVRIVPVEHLTPFPCGIFHKVQVNLCRWIHQQSTEGDADIRLWVNGCKLANRGAELLVLLVNHGQGIEVQVRGLETEKIKCCLLLDSVCSTIENVMATTLPGLLTVKHYLSPQQLREHHEPVMIYQPRDFFRAQTLKETSLTNTMGGYKESFSSIMCFGCHDVYSQASLGMDIHASDLNLLTRRKLSRLLDPPDPLGKDWCLLAMNLGLPDLVAKYNTSNGAPKDFLPSPLHALLREWTTYPESTVGTLMSKLRELGRRDAADFLLKASSVFKINLDGNGQEAYASSCNSGTSYNSISSVVSR
Q: Which results are given for B1?
A: Km [1]: 28 µM; Km [2]: 60 µM; Km [3]: 43 µM; Km [4]: 21 µM; Km [5]: 59 µM; Km [6]: 48 µM; kcat/Km [7]: 583 M⁻¹ s⁻¹; kcat/Km [8]: 417 M⁻¹ s⁻¹; kcat/Km [9]: 600 M⁻¹ s⁻¹; kcat/Km [10]: 1130 M⁻¹ s⁻¹; kcat/Km [11]: 417 M⁻¹ s⁻¹; kcat/Km [12]: 650 M⁻¹ s⁻¹; kcat [13]: 0.035 s⁻¹; kcat [14]: 0.0367 s⁻¹; kcat [15]: 0.0483 s⁻¹; kcat [16]: 0.025 s⁻¹; kcat [17]: 0.0383 s⁻¹; kcat [18]: 0.0383 s⁻¹

From ChEMBL document CHEMBL6127040, “Discovery and optimization of isoliquiritigenin as a death-associated protein kinase 1 inhibitor” (Eur J Med Chem, 2024)
